Assay results from article PMC9780223, “Structural insights into the covalent regulation of PAPP-A activity by proMBP and STC2” (Cell Discovery, 2022).

B1: pregnancy-associated plasma protein A (PAPP-A), endogenous, from pregnant human plasma (enzyme, human (endogenous in pregnant plasma), UniProt Q13219 82-1627, looked up)
chain: EARGATEEPSPPSRALYFSGRGEQLRLRADLELPRDAFTLQVWLRAEGGQRSPAVITGLYDKCSYISRDRGWVVGIHTISDQDNKDPRYFFSLKTDRARQVTTINAHRSYLPGQWVYLAATYDGQFMKLYVNGAQVATSGEQVGGIFSPLTQKCKVLMLGGSALNHNYRGYIEHFSLWKVARTQREILSDMETHGAHTALPQLLLQENWDNVKHAWSPMKDGSSPKVEFSNAHGFLLDTSLEPPLCGQTLCDNTEVIASYNQLSSFRQPKVVRYRVVNLYEDDHKNPTVTREQVDFQHHQLAEAFKQYNISWELDVLEVSNSSLRRRLILANCDISKIGDENCDPECNHTLTGHDGGDCRHLRHPAFVKKQHNGVCDMDCNYERFNFDGGECCDPEITNVTQTCFDPDSPHRAYLDVNELKNILKLDGSTHLNIFFAKSSEEELAGVATWPWDKEALMHLGGIVLNPSFYGMPGHTHTMIHEIGHSLGLYHVFRGISEIQSCSDPCMETEPSFETGDLCNDTNPAPKHKSCGDPGPGNDTCGFHSFFNTPYNNFMSYADDDCTDSFTPNQVARMHCYLDLVYQGWQPSRKPAPVALAPQVLGHTTDSVTLEWFPPIDGHFFERELGSACHLCLEGRILVQYASNASSPMPCSPSGHWSPREAEGHPDVEQPCKSSVRTWSPNSAVNPHTVPPACPEPQGCYLELEFLYPLVPESLTIWVTFVSTDWDSSGAVNDIKLLAVSGKNISLGPQNVFCDVPLTIRLWDVGEEVYGIQIYTLDEHLEIDAAMLTSTADTPLCLQCKPLKYKVVRDPPLQMDVASILHLNRKFVDMDLNLGSVYQYWVITISGTEESEPSPAVTYIHGSGYCGDGIIQKDQGEQCDDMNKINGDGCSLFCRQEVSFNCIDEPSRCYFHDGDGVCEEFEQKTSIKDCGVYTPQGFLDQWASNASVSHQDQQCPGWVIIGQPAASQVCRTKVIDLSEGISQHAWYPCTISYPYSQLAQTTFWLRAYFSQPMVAAAVIVHLVTDGTYYGDQKQETISVQLLDTKDQSHDLGLHVLSCRNNPLIIPVVHDLSQPFYHSQAVRVSFSSPLVAISGVALRSFDNFDPVTLSSCQRGETYSPAEQSCVHFACEKTDCPELAVENASLNCSSSDRYHGAQCTVSCRTGYVLQIRRDDELIKSQTGPSVTVTCTEGKWNKQVACEPVDCSIPDHHQVYAASFSCPEGTTFGSQCSFQCRHPAQLKGNNSLLTCMEDGLWSFPEALCELMCLAPPPVPNADLQTARCRENKHKVGSFCKYKCKPGYHVPGSSRKSKKRAFKTQCTQDGSWQEGACVPVTCDPPPPKFHGLYQCTNGFQFNSECRIKCEDSDASQGLGSNVIHCRKDGTWNGSFHVCQEMQGQCSVPNELNSNLKLQCPDGYAIGSECATSCLDHNSESIILPMNVTVRDIPHWLNPTRVERVVCTAGLKWYPHPALIHCVKGCEPFMGDNYCDAINNRAFCNYDGGDCCTSTVKTKKVTPFPMSCDLQGDCACRDPQAQEHSRKDLRGYSHG
modifications: glycosylation sites assigned in the density (positions not given)
notes: pregnancy-associated plasma protein A, human, full-length mature PAPP-A, Arg1-Gly1547; numbers count on: the mature protein; source: purified from pregnant human plasma as the PAPP-A·proMBP complex (PEG6000, SOURCE-15Q, MonoS, Superose-6)
B2: proform of eosinophil major basic protein (proMBP), endogenous, from pregnant human plasma (natural protein, human (endogenous in pregnant plasma), UniProt P13727 17-222, looked up)
chain: LHLRSETSTFETPLGAKTLPEDEETPEQEMEETPCRELEEEEEWGSGSEDASKKDGAVESISVPDMVDKNLTCPEEEDTVKVVGIPGCQTCRYLLVRSLQTFSQAWFTCRRCYRGNLVSIHNFNINYRIQCSVSALNQGQVWIGGRITGSGRCRRFQWVDGSRWNFAYWAAHQPWSRGGHCVALCTRGGHWRRAHCLRRLPFICSY
notes: proform of eosinophil major basic protein, human, encoded by PRG2; only residues 88-222 traced in the map, residues 1-87 invisible; Secreted proform; the signal peptide should be absent (surmise); Model built on PDB 1H8U; also called PM; PRG2; source: purified from pregnant human plasma as the PAPP-A·proMBP complex (PEG6000, SOURCE-15Q, MonoS, Superose-6)
B3: recombinant proMBP (modulator protein) (natural protein, UniProt P13727 17-222, looked up)
chain: B2 chain
notes: proform of eosinophil major basic protein, encoded by PRG2; construct not described; source: co-expressed with PAPP-A for the cleavage assay

Assays:
[1] = target: the molecule itself; assay: cryo-EM structure; PAPP-A·proMBP complex purified from pregnant human plasma, 0.2 mg/mL, in PBS pH 7.4; 2:2 map with C2 symmetry and half map after symmetry expansion
[2] = target: B1; assay: as above; conditions: both partners purified
[3] = target: purified recombinant PAPP-A free of STC2 (apo PAPP-A) (human, UniProt Q13219 82-1627, fluorescently labeled with Protein Labeling Kit RED-NHS (in MST)); assay: MST; RED-NHS labeled PAPP-A (24 nM, mixed with an equal volume of ligand), ligand serially diluted; PBS with 0.05% Tween-20, room temperature, 30 min; 1:1 binding mode; n = 3; conditions: both partners purified

Binder: B1
- stoichiometry N [1]: 2

Binder: B2
- binding result [2]: binds

Binder: B3
- Kd [3]: ~6.15 µM
